Results taken from the supplement of paper PMC10567573.

B1: CAMK2B (parent)
chain: YQQIKAGAYDFPSPEWDTVTPEAK

Variants of: B1
Test: protein stability index of a GFP-peptide fusion (GPS, HEK-293T) (PSI 1-6); higher = more stable
Settings: c terminus: a fixed tail appended
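Note: lentivirally expressed fusions sorted by FACS into six bins by GFP to DsRed ratio, PSI derived from sequencing read proportions per bin multiplied by bin number.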

Protein stability index: each site, then its substitutions
D17: Y 2.88 | W 2 | A 3.25 | I 2.76 | N 3.15 | L 2.51 | K 2.69 | M 2.6 | V 2.3 | Q 3.17 | R 2.57 | P 3.27 | S 2.77 | G 2.69 | T 2.84 | F 2.07 | C 2.34 | E 4.15 | H 2.85
G7: H 3.69 | C 2.77 | S 3.78 | I 3.25 | Y 1.87 | Q 3.92 | K 3.27 | R 2.96 | D 3.99 | P 3.86 | M 3.23 | N 3.77 | V 3.53 | F 1.86 | L 3 | W 2.31 | E 4.23 | A 3.79 | T 3.83
A6: Y 3.16 | S 3.59 | L 3.09 | V 3.12 | K 3.22 | C 3.37 | P 3.82 | Q 3.92 | E 4.41 | H 3.24 | N 3.44 | W 2.28 | D 4.28 | G 3.13 | M 3.96 | T 3.62 | F 2.9 | R 2.38 | I 2.77
V19: L 3.53 | I 3.79 | T 3.96 | K 3.66 | E 3.8 | P 3.69 | D 4.23 | G 3.92 | N 3.97 | Q 4.01 | S 3.59 | H 4.01 | A 3.48 | F 1.97 | Y 2.16 | R 2.99 | W 2.79 | C 3.82 | M 3.95
S13: G 4.11 | V 3.18 | N 3.69 | K 3.4 | A 3.24 | Q 2.9 | Y 3.6 | W 2.8 | H 3.25 | M 2.75 | I 3.37 | T 3.69 | C 2.74 | L 3.29 | E 4.12 | D 4.08 | F 2.79 | R 3.29
T20: E 3.93 | G 3.7 | P 3.18 | K 3.41 | D 4.31 | L 3.15 | R 3.47 | N 3.91 | C 3.51 | A 3.48 | F 3.03 | Q 3.34 | I 3.16 | M 3.16 | H 3.86
P12: I 3.21 | V 2.81 | N 3.94 | M 3.08 | W 3.5 | G 3.71 | R 2.34 | K 3.3 | Y 3.71 | H 3.21 | T 3.36 | D 4.01 | S 3.29 | A 2.94 | C 2.76 | L 2.9 | F 2.25 | E 4.09 | Q 4
E15: T 2.67 | V 2.55 | D 3.86 | A 2.93 | H 2.91 | Y 1.99 | C 2.42 | R 2.88 | I 2.53 | L 2.52 | M 2.77 | G 2.72 | N 3.41 | W 2.21 | S 3.39 | F 2.14 | K 2.88 | Q 3.44 | P 2.77
F11: N 4.37 | H 4.2 | D 4.63 | E 4.72 | P 4.67 | M 4.04 | Y 3.95 | Q 4.24 | L 3.97 | A 4.58 | W 3.15 | K 3.91 | C 4 | G 4 | S 4.36 | I 3.8 | T 4.43 | R 3.73 | V 4.15
K5: D 4.39 | W 1.95 | L 3.6 | H 3.46 | Y 3.11 | V 3.77 | S 3.64 | A 4.07 | N 3.92 | C 3.58 | R 3.34 | G 3.88 | I 3.35 | M 4.04 | P 3.71 | Q 3.77 | F 3.12 | E 4.84 | T 4
W16: E 4.46 | C 4.18 | Y 3.53 | I 4.2 | S 4.58 | R 3.54 | T 4.39 | V 4.2 | L 4.36 | M 4.31 | N 4.55 | K 3.45 | F 4.16 | H 4.35 | P 4.64 | A 4.07 | G 4.35 | D 4.79 | Q 4.28
T18: G 3.56 | I 3.06 | P 3.82 | C 3.37 | S 3.88 | Y 2.79 | L 3.35 | W 1.85 | R 3.33 | F 3.09 | H 3.63 | N 3.69 | Q 4.03 | K 3.87 | D 4.25 | E 4.27 | V 3.1 | M 3.24 | A 3.69
D10: C 2.25 | P 2.7 | Y 1.79 | A 2.72 | L 2.4 | F 1.98 | G 2.23 | M 2.7 | Q 2.67 | R 2.05 | E 3.55 | S 2.39 | I 1.99 | T 2.61 | H 2.54 | V 2.41 | W 2.83 | N 2.52 | K 2.25
Q3: F 2.55 | H 3.28 | N 3.62 | K 2.75 | W 2.09 | L 3.38 | S 2.8 | I 3.15 | R 2.22 | T 3.28 | E 4.59 | P 3.03 | Y 2.6 | V 3.44 | G 2.68 | M 2.88
P14: T 3.82 | L 3.17 | Y 2.89 | F 2.67 | N 3.88 | H 3.65 | I 3.4 | G 4.03 | C 3.45 | K 3.85 | A 3.96 | W 2.57 | E 4.47 | S 3.71 | V 3.39 | M 3.55 | D 4.42 | R 3.37 | Q 3.87
I4: G 3.34 | D 4.32 | Y 3.21 | T 3.58 | M 3.66 | R 3.06 | V 3.93 | L 3.81 | Q 3.78 | E 4.26 | W 2.05 | N 3.41 | K 3.42 | S 3.02 | H 3.56 | P 3.58 | F 3.19 | C 3.09 | A 3.46
Y9: M 4.1 | G 4.6 | S 4.3 | A 4.37 | P 4.17 | Q 4.48 | W 2.48 | H 4.14 | E 4.71 | I 3.9 | T 4.23 | C 3.79 | V 4.13 | R 3.64 | D 4.73 | F 3.5 | L 4.04 | N 4.26 | K 3.99
A8: M 3.44 | K 3.66 | H 3.79 | V 3.16 | C 3.44 | W 2.26 | D 3.91 | R 3.14 | L 3.03 | Q 3.68 | G 3.61 | S 3.75 | P 3.02 | I 3.05 | Y 3.31 | T 3.44 | E 3.95 | N 3.95 | F 2.84
